From IntAct's records for PubMed 29892012

B1: Protein arginine N-methyltransferase 8 (Homo sapiens), Q9NR22 (parent)
chain: MGMKHSSRCLLLRRKMAENAAESTEVNSPPSQPPQPVVPAKPVQCVHHVSTQPSCPGRGKMSKLLNPEEMTSRDYYFDSYAHFGIHEEMLKDEVRTLTYRNSMYHNKHVFKDKVVLDVGSGTGILSMFAAKAGAKKVFGIECSSISDYSEKIIKANHLDNIITIFKGKVEEVELPVEKVDIIISEWMGYCLFYESMLNTVIFARDKWLKPGGLMFPDRAALYVVAIEDRQYKDFKIHWWENVYGFDMTCIRDVAMKEPLVDIVDPKQVVTNACLIKEVDIYTVKTEELSFTSAFCLQIQRNDYVHALVTYFNIEFTKCHKKMGFSTAPDAPYTHWKQTVFYLEDYLTVRRGEEIYGTISMKPNAKNVRDLDFTVDLDFKGQLCETSVSNDYKMR
partner: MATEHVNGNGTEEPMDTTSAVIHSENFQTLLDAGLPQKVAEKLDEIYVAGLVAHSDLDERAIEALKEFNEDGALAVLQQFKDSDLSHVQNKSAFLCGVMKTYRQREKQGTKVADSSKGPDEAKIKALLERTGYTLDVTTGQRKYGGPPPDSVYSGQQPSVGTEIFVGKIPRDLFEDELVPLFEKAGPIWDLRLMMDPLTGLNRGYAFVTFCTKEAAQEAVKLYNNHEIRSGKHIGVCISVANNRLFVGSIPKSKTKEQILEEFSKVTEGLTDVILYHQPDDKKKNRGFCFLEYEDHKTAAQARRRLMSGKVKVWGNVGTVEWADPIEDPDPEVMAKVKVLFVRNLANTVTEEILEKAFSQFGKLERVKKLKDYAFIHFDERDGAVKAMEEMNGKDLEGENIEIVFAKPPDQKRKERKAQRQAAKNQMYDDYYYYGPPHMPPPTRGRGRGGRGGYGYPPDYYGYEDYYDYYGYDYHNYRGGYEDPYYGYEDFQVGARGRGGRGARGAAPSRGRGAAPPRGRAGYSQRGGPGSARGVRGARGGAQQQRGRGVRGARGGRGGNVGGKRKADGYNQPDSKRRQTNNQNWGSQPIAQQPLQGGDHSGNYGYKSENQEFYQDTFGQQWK
B2: Protein VAC14 homolog (Homo sapiens), Q08AM6 (parent)
chain: MNPEKDFAPLTPNIVRALNDKLYEKRKVAALEIEKLVREFVAQNNTVQIKHVIQTLSQEFALSQHPHSRKGGLIGLAACSIALGKDSGLYLKELIEPVLTCFNDADSRLRYYACEALYNIVKVARGAVLPHFNVLFDGLSKLAADPDPNVKSGSELLDRLLKDIVTESNKFDLVSFIPLLRERIYSNNQYARQFIISWILVLESVPDINLLDYLPEILDGLFQILGDNGKEIRKMCEVVLGEFLKEIKKNPSSVKFAEMANILVIHCQTTDDLIQLTAMCWMREFIQLAGRVMLPYSSGILTAVLPCLAYDDRKKSIKEVANVCNQSLMKLVTPEDDELDELRPGQRQAEPTPDDALPKQEGTASGGPDGSCDSSFSSGISVFTAASTERAPVTLHLDGIVQVLNCHLSDTAIGMMTRIAVLKWLYHLYIKTPRKMFRHTDSLFPILLQTLSDESDEVILKDLEVLAEIASSPAGQTDDPGPLDGPDLQASHSELQVPTPGRAGLLNTSGTKGLECSPSTPTMNSYFYKFMINLLKRFSSERKLLEVRGPFIIRQLCLLLNAENIFHSMADILLREEDLKFASTMVHALNTILLTSTELFQLRNQLKDLKTLESQNLFCCLYRSWCHNPVTTVSLCFLTQNYRHAYDLIQKFGDLEVTVDFLAEVDKLVQLIECPIFTYLRLQLLDVKNNPYLIKALYGLLMLLPQSSAFQLLSHRLQCVPNPELLQTEDSLKAAPKSQKADSPSIDYAELLQHFEKVQNKHLEVRHQRSGRGDHLDRRVVL
partner: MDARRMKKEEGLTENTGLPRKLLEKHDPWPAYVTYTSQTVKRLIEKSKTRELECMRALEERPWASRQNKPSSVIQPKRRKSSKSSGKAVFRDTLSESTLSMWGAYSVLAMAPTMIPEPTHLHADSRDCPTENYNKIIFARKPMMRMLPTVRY
B3: F-box/LRR-repeat protein 12 (Homo sapiens), Q9NXK8 (parent)
chain: MATLVELPDSVLLEIFSYLPVRDRIRISRVCHRWKRLVDDRWLWRHVDLTLYTMRPKVMWHLLRRYMASRLHSLRMGGYLFSGSQAPQLSPALLRALGQKCPNLKRLCLHVADLSMVPITSLPSTLRTLELHSCEISMAWLHKQQDPTVLPLLECIVLDRVPAFRDEHLQGLTRFRALRSLVLGGTYRVTETGLDAGLQELSYLQRLEVLGCTLSADSTLLAISRHLRDVRKIRLTVRGLSAPGLAVLEGMPALESLCLQGPLVTPEMPSPTEILSSCLTMPKLRVLELQGLGWEGQEAEKILCKGLPHCMVIVRACPKESMDWWM
B4: Genetic suppressor element 1 (Homo sapiens), Q14687 (parent)
chain: MKGMSHEPKSPSLGMLSTATRTTATVNPLTPSPLNGALVPSGSPATSSALSAQAAPSSSFAAALRKLAKQAEEPRGSSLSSESSPVSSPATNHSSPASTPKRVPMGPIIVPPGGHSVPSTPPVVTIAPTKTVNGVWRSESRQDAGSRSSSGGRERLIVEPPLPQEKAGGPAIPSHLLSTPYPFGLSPSSVVQDSRFPPLNLQRPVHHVVPPSTVTEDYLRSFRPYHTTDDLRMSSLPPLGLDPATAAAYYHPSYLAPHPFPHPAFRMDDSYCLSALRSPFYPIPTPGSLPPLHPSAMHLHLSGVRYPPELSHSSLAALHSERMSGLSAERLQMDEELRREREREREREREREADREREKEREREREKEREQEKEREREKERERELERQREQRAREKELLAAKALEPSFLPVAELHGLRGHATEERGKPSEQLTPTRAEKLKDAGLQAPKPVQHPLHPVPTPHHTVPSLISNHGIFSLPSSSAATALLIQRTNEEEKWLARQRRLRQEKEDRQSQVSEFRQQVLEQHLDMGRPPVPAEAEHRPESTTRPGPNRHEPGGRDPPQHFGGPPPLISPKPQLHAAPTALWNPVSLMDNTLETRRAESHSLHSHPAAFEPSRQAAVPLVKVERVFCPEKAEEGPRKREPAPLDKYQPPPPPPREGGSLEHQPFLPGPGPFLAELEKSTQTILGQQRASLPQAATFGELSGPLKPGSPYRPPVPRAPDPAYIYDEFLQQRRRLVSKLDLEERRRREAQEKGYYYDLDDSYDESDEEEVRAHLRCVAEQPPLKLDTSSEKLEFLQLFGLTTQQQKEELVAQKRRKRRRMLRERSPSPPTIQSKRQTPSPRLALSTRYSPDEMNNSPNFEEKKKFLTIFNLTHISAEKRKDKERLVEMLRAMKQKALSAAVADSLTNSPRDSPAVSLSEPATQQASLDVEKPVGVAASLSDIPKAAEPGKLEQVRPQELSRVQELAPASGEKARLSEAPGGKKSLSMLHYIRGAAPKDIPVPLSHSTNGKSKPWEPFVAEEFAHQFHESVLQSTQKALQKHKGSVAVLSAEQNHKVDTSVHYNIPELQSSSRAPPPQHNGQQEPPTARKGPPTQELDRDSEEEEEEDDEDGEDEEEVPKRKWQGIEAVFEAYQEHIEEQNLERQVLQTQCRRLEARHYSLSLTAEQLSHSVAELRSQKQKMVSERERLQAELDHLRKCLALPAMHWPRGYLKGYPR
partner: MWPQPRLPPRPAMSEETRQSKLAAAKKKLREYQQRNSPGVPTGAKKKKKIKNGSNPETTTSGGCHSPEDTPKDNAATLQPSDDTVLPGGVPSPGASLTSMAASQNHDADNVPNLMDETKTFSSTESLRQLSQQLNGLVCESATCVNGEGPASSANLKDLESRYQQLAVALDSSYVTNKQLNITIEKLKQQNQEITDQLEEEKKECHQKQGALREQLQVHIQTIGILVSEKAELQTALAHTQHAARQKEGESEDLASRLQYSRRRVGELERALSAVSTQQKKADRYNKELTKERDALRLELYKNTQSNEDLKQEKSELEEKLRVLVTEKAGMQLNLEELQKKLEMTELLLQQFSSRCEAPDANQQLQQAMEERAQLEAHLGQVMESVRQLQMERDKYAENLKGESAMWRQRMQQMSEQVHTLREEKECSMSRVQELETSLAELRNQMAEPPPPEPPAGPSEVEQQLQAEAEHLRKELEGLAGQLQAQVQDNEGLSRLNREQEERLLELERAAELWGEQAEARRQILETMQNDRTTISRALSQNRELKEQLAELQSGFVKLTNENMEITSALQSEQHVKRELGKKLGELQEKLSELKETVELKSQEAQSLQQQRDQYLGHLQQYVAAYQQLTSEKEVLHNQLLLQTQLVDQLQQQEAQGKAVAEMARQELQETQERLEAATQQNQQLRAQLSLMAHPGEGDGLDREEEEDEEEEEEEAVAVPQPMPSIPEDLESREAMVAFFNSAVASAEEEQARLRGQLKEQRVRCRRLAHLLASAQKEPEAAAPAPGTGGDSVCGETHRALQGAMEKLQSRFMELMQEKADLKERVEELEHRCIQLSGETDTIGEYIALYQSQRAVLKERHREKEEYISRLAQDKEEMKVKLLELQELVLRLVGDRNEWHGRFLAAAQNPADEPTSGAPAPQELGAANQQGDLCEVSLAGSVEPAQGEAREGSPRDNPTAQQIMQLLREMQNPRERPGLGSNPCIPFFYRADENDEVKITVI
B5: Ligand of Numb protein X 2 (Homo sapiens), Q8N448 (parent)
chain: MGTTSDEMVSVEQTSSSSLNPLCFECGQQHWTRENHLYNYQNEVDDDLVCHICLQPLLQPLDTPCGHTFCYKCLRNFLQEKDFCPLDRKRLHFKLCKKSSILVHKLLDKLLVLCPFSSVCKDVMQRCDLEAHLKNRCPGASHRRVALERRKTSRTQAEIENENGPTLLDPAGTLSPEADCLGTGAVPVERHLTSASLSTWSEEPGLDNPAFEESAGADTTQQPLSLPEGEITTIEIHRSNPYIQLGISIVGGNETPLINIVIQEVYRDGVIARDGRLLAGDQILQVNNYNISNVSHNYARAVLSQPCNTLHLTVLRERRFGNRAHNHSDSNSPREEIFQVALHKRDSGEQLGIKLVRRTDEPGVFILDLLEGGLAAQDGRLSSNDRVLAINGHDLKYGTPELAAQIIQASGERVNLTIARPGKPQPGNTIREAGNHSSSSQHHTPPPYYSRPSSHKDLTQCVTCQEKHITVKKEPHESLGMTVAGGRGSKSGELPIFVTSVPPHGCLARDGRIKRGDVLLNINGIDLTNLSHSEAVAMLKASAASPAVALKALEVQIVEEATQNAEEQPSTFSENEYDASWSPSWVMWLGLPSTLHSCHDIVLRRSYLGSWGFSIVGGYEENHTNQPFFIKTIVLGTPAYYDGRLKCGDMIVAVNGLSTVGMSHSALVPMLKEQRNKVTLTVICWPGSLV
partner: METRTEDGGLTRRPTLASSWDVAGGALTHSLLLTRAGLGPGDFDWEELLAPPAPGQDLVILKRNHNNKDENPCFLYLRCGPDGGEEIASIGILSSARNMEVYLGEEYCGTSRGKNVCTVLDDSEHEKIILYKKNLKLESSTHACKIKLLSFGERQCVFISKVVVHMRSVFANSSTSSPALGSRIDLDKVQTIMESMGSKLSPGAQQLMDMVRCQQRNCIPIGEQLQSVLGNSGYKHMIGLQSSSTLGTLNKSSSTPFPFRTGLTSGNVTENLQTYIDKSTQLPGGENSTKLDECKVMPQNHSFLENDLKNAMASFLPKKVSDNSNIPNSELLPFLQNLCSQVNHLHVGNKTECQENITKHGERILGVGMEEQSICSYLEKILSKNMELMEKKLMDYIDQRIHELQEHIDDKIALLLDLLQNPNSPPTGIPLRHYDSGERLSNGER
B6: Ribonuclease inhibitor (Homo sapiens), P13489 (parent)
chain: MSLDIQSLDIQCEELSDARWAELLPLLQQCQVVRLDDCGLTEARCKDISSALRVNPALAELNLRSNELGDVGVHCVLQGLQTPSCKIQKLSLQNCCLTGAGCGVLSSTLRTLPTLQELHLSDNLLGDAGLQLLCEGLLDPQCRLEKLQLEYCSLSAASCEPLASVLRAKPDFKELTVSNNDINEAGVRVLCQGLKDSPCQLEALKLESCGVTSDNCRDLCGIVASKASLRELALGSNKLGDVGMAELCPGLLHPSSRLRTLWIWECGITAKGCGDLCRVLRAKESLKELSLAGNELGDEGARLLCETLLEPGCQLESLWVKSCSFTAACCSHFSSVLAQNRFLLELQISNNRLEDAGVRELCQGLGQPGSVLRVLWLADCDVSDSSCSSLAATLLANHSLRELDLSNNCLGDAGILQLVESVRQPGCLLEQLVLYDIYWSEEMEDRLQALEKDKPSLRVIS

Variants of: B1
Settings: with hnrpq_human SYNCRIP

| Variant | effect of a mutation on the interaction |
| --- | --- |
| R350S | with no effect |

Variants of: B2
Settings: with cdrt4_human CDRT4, Q8N9R6

| Variant | effect of a mutation on the interaction |
| --- | --- |
| A127S | with no effect |

Variants of: B3
Settings: with dock8_human DOCK8, Q8NF50
Sequence of dock8_human DOCK8, Q8NF50 (Q8NF50 whole entry): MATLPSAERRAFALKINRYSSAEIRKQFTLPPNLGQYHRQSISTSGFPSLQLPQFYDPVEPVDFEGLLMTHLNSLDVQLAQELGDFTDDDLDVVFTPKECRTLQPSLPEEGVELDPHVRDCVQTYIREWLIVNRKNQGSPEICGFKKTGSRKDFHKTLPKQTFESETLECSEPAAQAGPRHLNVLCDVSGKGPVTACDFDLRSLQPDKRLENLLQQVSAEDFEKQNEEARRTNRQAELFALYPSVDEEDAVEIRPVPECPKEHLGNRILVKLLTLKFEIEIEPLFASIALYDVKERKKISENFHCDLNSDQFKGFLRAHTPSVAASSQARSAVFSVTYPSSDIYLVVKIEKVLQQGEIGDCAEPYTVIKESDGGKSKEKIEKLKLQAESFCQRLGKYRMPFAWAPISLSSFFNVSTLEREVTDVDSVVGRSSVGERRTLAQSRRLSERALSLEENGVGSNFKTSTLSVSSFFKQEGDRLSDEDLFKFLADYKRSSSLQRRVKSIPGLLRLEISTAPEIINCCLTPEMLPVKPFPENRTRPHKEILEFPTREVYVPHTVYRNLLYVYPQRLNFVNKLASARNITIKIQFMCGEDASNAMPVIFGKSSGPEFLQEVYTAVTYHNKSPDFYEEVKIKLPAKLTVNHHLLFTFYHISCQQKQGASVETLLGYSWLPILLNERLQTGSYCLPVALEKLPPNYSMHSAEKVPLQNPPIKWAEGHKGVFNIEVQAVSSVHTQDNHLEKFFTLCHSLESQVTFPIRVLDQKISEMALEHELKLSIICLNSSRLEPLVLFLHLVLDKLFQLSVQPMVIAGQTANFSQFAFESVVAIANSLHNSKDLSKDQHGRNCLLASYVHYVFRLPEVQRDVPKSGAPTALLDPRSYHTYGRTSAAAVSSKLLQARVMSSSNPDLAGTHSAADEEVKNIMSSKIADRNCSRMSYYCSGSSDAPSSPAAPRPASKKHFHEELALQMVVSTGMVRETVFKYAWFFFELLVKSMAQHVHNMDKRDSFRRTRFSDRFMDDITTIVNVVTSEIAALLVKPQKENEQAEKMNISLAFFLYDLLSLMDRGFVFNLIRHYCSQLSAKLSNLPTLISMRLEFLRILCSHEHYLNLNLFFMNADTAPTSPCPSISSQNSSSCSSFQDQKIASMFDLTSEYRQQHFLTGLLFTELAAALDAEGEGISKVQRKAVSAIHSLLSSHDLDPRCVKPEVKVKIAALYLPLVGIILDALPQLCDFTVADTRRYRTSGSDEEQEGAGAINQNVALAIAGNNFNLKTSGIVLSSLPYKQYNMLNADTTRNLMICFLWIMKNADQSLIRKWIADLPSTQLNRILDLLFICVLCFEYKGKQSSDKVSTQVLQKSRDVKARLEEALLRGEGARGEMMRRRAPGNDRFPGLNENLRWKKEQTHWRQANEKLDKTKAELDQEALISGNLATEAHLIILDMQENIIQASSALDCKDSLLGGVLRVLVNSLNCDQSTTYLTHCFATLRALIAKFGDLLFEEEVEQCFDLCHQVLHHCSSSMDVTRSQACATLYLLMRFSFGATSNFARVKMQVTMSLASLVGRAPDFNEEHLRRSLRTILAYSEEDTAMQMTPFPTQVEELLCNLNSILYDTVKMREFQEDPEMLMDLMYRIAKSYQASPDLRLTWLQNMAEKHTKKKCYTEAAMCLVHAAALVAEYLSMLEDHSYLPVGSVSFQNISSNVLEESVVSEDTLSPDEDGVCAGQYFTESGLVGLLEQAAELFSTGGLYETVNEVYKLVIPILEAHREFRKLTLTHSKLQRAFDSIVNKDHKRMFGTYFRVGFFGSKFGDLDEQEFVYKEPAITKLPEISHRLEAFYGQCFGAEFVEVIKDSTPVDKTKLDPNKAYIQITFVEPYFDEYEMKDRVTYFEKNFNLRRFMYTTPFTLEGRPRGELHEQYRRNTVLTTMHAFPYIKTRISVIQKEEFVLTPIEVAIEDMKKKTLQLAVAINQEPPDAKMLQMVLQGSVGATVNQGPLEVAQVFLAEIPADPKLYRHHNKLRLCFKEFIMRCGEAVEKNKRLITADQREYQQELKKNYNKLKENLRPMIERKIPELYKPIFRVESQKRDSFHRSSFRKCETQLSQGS

| Variant | effect of a mutation on the interaction |
| --- | --- |
| I313V | with no effect |

Variants of: B4
Settings: with goga2_human GOLGA2, Q08379

| Variant | effect of a mutation on the interaction |
| --- | --- |
| E368K | with no effect |

Variants of: B4
Settings: with goga2_human GOLGA2, Q08379
Remark: another data set of the same source

| Variant | effect of a mutation on the interaction |
| --- | --- |
| R503Q | with no effect |

Variants of: B5
Settings: with paat_human PAAT

| Variant | effect of a mutation on the interaction |
| --- | --- |
| P669A | with no effect |

Variants of: B6
Settings: with sdcb1_human SDCBP

| Variant | effect of a mutation on the interaction |
| --- | --- |
| V358M | with no effect |
